Assays:
[1] = target: T1, mouse PVRIG on HEK293 over-expressing cells (mouse); experiment: FACS, 60 µg/ml on HEK293 OX mouse PVRIG; one of two sources
T1 construct: whole, on cells; also called HEK293 OX mouse PVRIG; mouse PVRIG-FLAG

[2] = target: T2, human PVRIG (Poliovirus Receptor Related Immunoglobulin Domain Containing Protein) (human, UniProt Q6DKI7 41-326); experiment: FACS on Jurkat cells after PVRIG siRNA knock down
T2 construct: whole, on cells; on HEK293 over-expressing cells (some pools flag-tagged), Jurkat, CA46 or primary T cells; also called hPVRIG; C7orf15
T2 sequence (looked up): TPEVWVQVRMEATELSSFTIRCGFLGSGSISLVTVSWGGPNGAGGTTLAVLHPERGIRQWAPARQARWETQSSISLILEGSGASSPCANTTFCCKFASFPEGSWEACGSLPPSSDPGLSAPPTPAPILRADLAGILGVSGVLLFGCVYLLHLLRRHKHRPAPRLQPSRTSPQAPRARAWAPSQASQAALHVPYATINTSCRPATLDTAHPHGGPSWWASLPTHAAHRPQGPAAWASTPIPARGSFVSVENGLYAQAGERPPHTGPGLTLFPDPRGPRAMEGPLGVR

[3] = target: T2, human PVRIG (Poliovirus Receptor …); experiment: flow cytometry equilibrium titration on HEK 293 cells expressing human PVRIG, 1:1 fit
[4] = target: T2, human PVRIG (Poliovirus Receptor …); experiment: FACS on Jurkat cells transfected with scrambled siRNA

B1: mouse PVRL2-his (ligand, UniProt P32507 32-351, looked up)
chain: QDVRVRVLPEVRGRLGGTVELPCHLLPPTTERVSQVTWQRLDGTVVAAFHPSFGVDFPNSQFSKDRLSFVRARPETNADLRDATLAFRGLRVEDEGNYTCEFATFPNGTRRGVTWLRVIAQPENHAEAQEVTIGPQSVAVARCVSTGGRPPARITWISSLGGEAKDTQEPGIQAGTVTIISRYSLVPVGRADGVKVTCRVEHESFEEPILLPVTLSVRYPPEVSISGYDDNWYLGRSEAILTCDVRSNPEPTDYDWSTTSGVFPASAVAQGSQLLVHSVDRMVNTTFICTATNAVGTGRAEQVILVRESPSTAGAGATGG
notes: also called His-tagged PVRL2; his-tagged mouse PVLR2
fold binding vs empty vector cells [1]: 2 fold

B2: CPA.7.021 IgG conjugated with Alexa 647 (antibody, V domains shown)
VH: EVQLVESGGGVVKPGGSLRLSCAASGFTFGTSSMNWVRQAPGKGLEWVAVISFDGTEIHYADSVKGRFTISRDNSKSTVFLQMNSLRPDDTALYYCAKGSGNIYFYSGMDVWGQGTTVTVSS
VL: DIQMTQSPSTLSASVGDRVTITCRAGQSISGWLAWFQQKPGKAPNLLIYETSTLESGVPSRFSGSGSGTEYTLTISSLQPDDFATYYCQQYYSYPLTFGQGTKVEIK
fold change (anti PVRIG vs isotype control) [2]: 2.8 fold | Kd [3]: 2.5 nM | fold change (anti PVRIG vs isotype control) [4]: 15.3 fold

Reference: US20250333503A1 (COMPUGEN, published 2025)
